According to the MegaScale stability set (Tsuboyama et al. 2023):

B1: r16_88_TrROS_Hall (parent)
chain: EVIELKIKFKTPEQREKLKEIAKKLNAEVVEEKDGEVIIRFKTPEQAERALKEAEKLGAEVEL

Variants of: B1
Experiment: folding stability dG (cDNA display proteolysis); higher = more stable
Conditions: PBS, room temperature

Compared with EVIELKIKFKTPEQREKLKEIAKKLNAEVVEEKDGEVIIRFKTPEQAERALKEAEKLGAEVAL [E62A], EVIELKIKFKTPEQREKLKEIAKKLNAEVVEEKDGEVIIRFKTPEQAERALKEAEKLGAEVPL [E62P] is lower in “folding stability dG” value: 4.5 kcal/mol for the first, 3.84 kcal/mol for the second.

First: EVIELKIKFKTPEQREKLKEIAKKLNAEVVEEKDGEVIIRFKTPEQAERALKEAEKLGAEVEW [L63W]
Second: EVIELKIWFKTPEQREKLKEIAKKLNAEVVEEKDGEVIIRFKTPEQAERALKEAEKLGAEVEL [K8W]
The “folding stability dG” value of the first is lower: 4.73 kcal/mol for the first, 4.83 kcal/mol for the second.

Going from EVIELKIKFKTPEQREKLKEIAKKLNAEVVEEKDGEVIIRFKTPEQAERYLKEAEKLGAEVEL [A50Y] to EVIELKIKFKTPEQREKLKEIAKKLNAEVVEEKDGEVIIRFKTPEQAERHLKEAEKLGAEVEL [A50H], the “folding stability dG” value falls from 4.43 kcal/mol to 3.68 kcal/mol.

Compared with EVIELKIKFKTPEQREKLKEIAKKLNAEVTEEKDGEVIIRFKTPEQAERALKEAEKLGAEVEL [V30T], SVIELKIKFKTPEQREKLKEIAKKLNAEVVEEKDGEVIIRFKTPEQAERALKEAEKLGAEVEL [E1S] is lower in “folding stability dG” value: 4.39 kcal/mol for the first, 4.32 kcal/mol for the second.

First: EVIELKVKFKTPEQREKLKEIAKKLNAEVVEEKDGEVIIRFKTPEQAERALKEAEKLGAEVEL [I7V]
Second: EVIELKPKFKTPEQREKLKEIAKKLNAEVVEEKDGEVIIRFKTPEQAERALKEAEKLGAEVEL [I7P]
The “folding stability dG” value of the first is higher: 4.44 kcal/mol for the first, 2.3 kcal/mol for the second.

Going from EVIELKCKFKTPEQREKLKEIAKKLNAEVVEEKDGEVIIRFKTPEQAERALKEAEKLGAEVEL [I7C] to EVIELKIKFKTPEQREKLKEIAKKLNAEVVEEKDGEVIIRFKTPEQAERALGEAEKLGAEVEL [K52G], the “folding stability dG” value rises from 4.31 kcal/mol to 4.44 kcal/mol.

First: EVIELKIKFKSPEQREKLKEIAKKLNAEVVEEKDGEVIIRFKTPEQAERALKEAEKLGAEVEL [T11S]
Second: EVIELKIKFKTPEQREKLKEIAKKLNAVVVEEKDGEVIIRFKTPEQAERALKEAEKLGAEVEL [E28V]
The “folding stability dG” value of the first is higher: 4.44 kcal/mol for the first, 4.41 kcal/mol for the second.

Compared with EVIELKIKFKTPEQREKLKEIAKKLNALVVEEKDGEVIIRFKTPEQAERALKEAEKLGAEVEL [E28L], EVIELKIKFKTPEQREKLKEIAKKLNAEVVEEKDGEVIIRFKTPEQAERALKEAEKTGAEVEL [L57T] is lower in “folding stability dG” value: 4.24 kcal/mol for the first, 4.04 kcal/mol for the second.

Compared with EVIELKIKFKTPEQREKLKEIAKKLNAEVVEEKDGEVIIRFKTHEQAERALKEAEKLGAEVEL [P44H], EVIELKIKFKTPEQREKLKEIAKKLNAEVVEEKDGEVIIRFKTCEQAERALKEAEKLGAEVEL [P44C] is lower in “folding stability dG” value: 4.75 kcal/mol for the first, 4.66 kcal/mol for the second.

First: EVIELKIKFKTPEQREKLKEIAKKLNAEVVEEKDGEVIVRFKTPEQAERALKEAEKLGAEVEL [I39V]
Second: EVIELKIKFKTPEQREKLKEIAKKLNAEVVEEKDGEVIHRFKTPEQAERALKEAEKLGAEVEL [I39H]
The “folding stability dG” value of the first is higher: 4.44 kcal/mol for the first, 3.68 kcal/mol for the second.

Compared with EVIELKIKFKTPEQREKLKEIAKKLNAEVVEEKDGEVIIRFKHPEQAERALKEAEKLGAEVEL [T43H], EVIELKIKFKTPEQREKLKEIAKKLNAEQVEEKDGEVIIRFKTPEQAERALKEAEKLGAEVEL [V29Q] is higher in “folding stability dG” value: 4.57 kcal/mol for the first, 4.76 kcal/mol for the second.

Compared with EVIELKIKFKTPEQREKLWEIAKKLNAEVVEEKDGEVIIRFKTPEQAERALKEAEKLGAEVEL [K19W], EVIELKIKDKTPEQREKLKEIAKKLNAEVVEEKDGEVIIRFKTPEQAERALKEAEKLGAEVEL [F9D] is lower in “folding stability dG” value: 4.7 kcal/mol for the first, 3.45 kcal/mol for the second.

First: EVIELKIKFKTPEQREKLKEIAKKLNAEVVEWKDGEVIIRFKTPEQAERALKEAEKLGAEVEL [E32W]
Second: EVIELKIKFKTPEQREKLKEIAKKLNAEVVEYKDGEVIIRFKTPEQAERALKEAEKLGAEVEL [E32Y]
The “folding stability dG” value of the first is lower: 4.34 kcal/mol for the first, 4.65 kcal/mol for the second.

First: EVIELKIKFKTPEQREKLKEIAKKLNAEVVEFKDGEVIIRFKTPEQAERALKEAEKLGAEVEL [E32F]
Second: EVIELKIKFKTPEQREKLKEIAKKLNAEVVELKDGEVIIRFKTPEQAERALKEAEKLGAEVEL [E32L]
The “folding stability dG” value of the first is higher: 4.57 kcal/mol for the first, 4.31 kcal/mol for the second.

First: EVIELKIKFKTPEQREKLKEIAKKLNAEVVEEKDGEVIIRFKTPEQAERALKEAEKLGAEYEL [V61Y]
Second: EVIELKIKFKTPEQREKLKEEAKKLNAEVVEEKDGEVIIRFKTPEQAERALKEAEKLGAEVEL [I21E]
The “folding stability dG” value of the first is lower: 3.79 kcal/mol for the first, 4 kcal/mol for the second.

Compared with EVIELKIKFKTPEQREKLKEIAKKLNAEVVEEKDGEVIIRFKTPRQAERALKEAEKLGAEVEL [E45R], EDIELKIKFKTPEQREKLKEIAKKLNAEVVEEKDGEVIIRFKTPEQAERALKEAEKLGAEVEL [V2D] is lower in “folding stability dG” value: 4.37 kcal/mol for the first, 4.1 kcal/mol for the second.

Compared with EAIELKIKFKTPEQREKLKEIAKKLNAEVVEEKDGEVIIRFKTPEQAERALKEAEKLGAEVEL [V2A], EFIELKIKFKTPEQREKLKEIAKKLNAEVVEEKDGEVIIRFKTPEQAERALKEAEKLGAEVEL [V2F] is higher in “folding stability dG” value: 4.3 kcal/mol for the first, 4.68 kcal/mol for the second.

Compared with EVIELKIKFKTPEQREKLKEIIKKLNAEVVEEKDGEVIIRFKTPEQAERALKEAEKLGAEVEL [A22I], EVIELKIKFKTPEQREKLKEIEKKLNAEVVEEKDGEVIIRFKTPEQAERALKEAEKLGAEVEL [A22E] is lower in “folding stability dG” value: 4.38 kcal/mol for the first, 4.17 kcal/mol for the second.

First: EVIELKIKFKTPEQREKLKEIAKKLNAEVVEEKDGEVIIRFKTPEQAERALKEVEKLGAEVEL [A54V]
Second: EVIELKIKFKTPEQREKLKEIAKKLNAEVVEEKDGEVIIRFKTPEQAERALKEREKLGAEVEL [A54R]
The “folding stability dG” value of the first is higher: 4.43 kcal/mol for the first, 3.4 kcal/mol for the second.

Compared with EVIELKIKFKTPEQREKLKEIAKKLNAEVVEEKDHEVIIRFKTPEQAERALKEAEKLGAEVEL [G35H], EVIELKIKFKTPEQREKLKEIAKKLNAEVVEEKDDEVIIRFKTPEQAERALKEAEKLGAEVEL [G35D] is lower in “folding stability dG” value: 4.16 kcal/mol for the first, 4.1 kcal/mol for the second.

Going from EVIELKIKFKTPEQREKLKEIAKKLNAEVVEEKDYEVIIRFKTPEQAERALKEAEKLGAEVEL [G35Y] to EVIELKIKFKTPEQREKLKEIAKKLNAEVVEEKDGSVIIRFKTPEQAERALKEAEKLGAEVEL [E36S], the “folding stability dG” value rises from 4.18 kcal/mol to 4.26 kcal/mol.

For EVIELTIKFKTPEQREKLKEIAKKLNAEVVEEKDGEVIIRFKTPEQAERALKEAEKLGAEVEL [K6T], the “folding stability dG” value was 4.34 kcal/mol.
